B1: GLS3000 Q93Y one-arm antibody (antibody, human IgG1, kappa, L234A L235A, N297A, name in Kabat numbering)
heavy: QVQLVESGGGVVQPGRSLRLSCAASGFTFSNAWMHWVRQAPGKGLEWVAQIKAKSNNYATYYAESVKGRFTISRDDSKNSLYLQMNSLKTEDTAVYYCRYVHYGAYYGVDAWGQGTTVTVSSASTKGPSVFPLAPSSKSTSGGTAALGCLVKDYFPEPVTVSWNSGALTSGVHTFPAVLQSSGLYSLSSVVTVPSSSLGTQTYICNVNHKPSNTKVDKKVEPKSCDKTHTCPPCPAPEAAGGPSVFLFPPKPKDTLMISRTPEVTCVVVDVSHEDPEVKFNWYVDGVEVHNAKTKPREEQYASTYRVVSVLTVLHQDWLNGKEYKCKVSNKALPAPIEKTISKAKGQPREPQVYTLPPSRCELTKNQVSLSCAVKGFYPSDIAVEWESNGQPENNYKTTPPVLDSDGSFFLVSKLTVDKSRWQQGNVFSCSVMHEALHNHYTQKSLSLSPDYKDDDDK
chain: EPKSSDKTHTCPPCPAPELLGGPSVFLFPPKPKDTLMISRTPEVTCVVVDVSHEDPEVKFNWYVDGVEVHNAKTKPREEQYNSTYRVVSVLTVLHQDWLNGKEYKCKVSNKALPAPIEKTISKAKGQPREPQVCTLPPSRDELTKNQVSLWCLVKGFYPSDIAVEWESNGQPENNYKTTPPVLDSDGSFFLYSKLTVDKSRWQQGNVFSCSVMHEALHNRYTQKSLSLSP
light: DIVMTQSPLSLPVTPGEPASISCRSSQSLVHSNRNTYLHWYQQKPGQAPRLLIYKVSNRFSGVPDRFSGSGSGTDFTLKISRVEAEDVGVYYCGQGTYVPYTFGQGTKLEIKRTVAAPSVFIFPPSDEQLKSGTASVVCLLNNFYPREAKVQWKVDNALQSGNSQESVTEQDSKDSTYSLSSTLTLSKADYEKHKVYACEVTHQGLSSPVTKSFNRGEC
B2: GLS3000 R24A one-arm antibody (antibody, human IgG1, kappa, L234A L235A, N297A, name in Kabat numbering)
heavy: QVQLVESGGGVVQPGRSLRLSCAASGFTFSNAWMHWVRQAPGKGLEWVAQIKAKSNNYATYYAESVKGRFTISRDDSKNSLYLQMNSLKTEDTAVYYCRYVHYGAYYGVDAWGQGTTVTVSSASTKGPSVFPLAPSSKSTSGGTAALGCLVKDYFPEPVTVSWNSGALTSGVHTFPAVLQSSGLYSLSSVVTVPSSSLGTQTYICNVNHKPSNTKVDKKVEPKSCDKTHTCPPCPAPEAAGGPSVFLFPPKPKDTLMISRTPEVTCVVVDVSHEDPEVKFNWYVDGVEVHNAKTKPREEQYASTYRVVSVLTVLHQDWLNGKEYKCKVSNKALPAPIEKTISKAKGQPREPQVYTLPPSRCELTKNQVSLSCAVKGFYPSDIAVEWESNGQPENNYKTTPPVLDSDGSFFLVSKLTVDKSRWQQGNVFSCSVMHEALHNHYTQKSLSLSPDYKDDDDK
chain: EPKSSDKTHTCPPCPAPELLGGPSVFLFPPKPKDTLMISRTPEVTCVVVDVSHEDPEVKFNWYVDGVEVHNAKTKPREEQYNSTYRVVSVLTVLHQDWLNGKEYKCKVSNKALPAPIEKTISKAKGQPREPQVCTLPPSRDELTKNQVSLWCLVKGFYPSDIAVEWESNGQPENNYKTTPPVLDSDGSFFLYSKLTVDKSRWQQGNVFSCSVMHEALHNRYTQKSLSLSP
light: DIVMTQSPLSLPVTPGEPASISCASSQSLVHSNRNTYLHWYQQKPGQAPRLLIYKVSNRFSGVPDRFSGSGSGTDFTLKISRVEAEDVGVYYCGQGTQVPYTFGQGTKLEIKRTVAAPSVFIFPPSDEQLKSGTASVVCLLNNFYPREAKVQWKVDNALQSGNSQESVTEQDSKDSTYSLSSTLTLSKADYEKHKVYACEVTHQGLSSPVTKSFNRGEC
B3: GLS3000 R24D one-arm antibody (antibody, human IgG1, kappa, L234A L235A, N297A, name in Kabat numbering)
heavy: QVQLVESGGGVVQPGRSLRLSCAASGFTFSNAWMHWVRQAPGKGLEWVAQIKAKSNNYATYYAESVKGRFTISRDDSKNSLYLQMNSLKTEDTAVYYCRYVHYGAYYGVDAWGQGTTVTVSSASTKGPSVFPLAPSSKSTSGGTAALGCLVKDYFPEPVTVSWNSGALTSGVHTFPAVLQSSGLYSLSSVVTVPSSSLGTQTYICNVNHKPSNTKVDKKVEPKSCDKTHTCPPCPAPEAAGGPSVFLFPPKPKDTLMISRTPEVTCVVVDVSHEDPEVKFNWYVDGVEVHNAKTKPREEQYASTYRVVSVLTVLHQDWLNGKEYKCKVSNKALPAPIEKTISKAKGQPREPQVYTLPPSRCELTKNQVSLSCAVKGFYPSDIAVEWESNGQPENNYKTTPPVLDSDGSFFLVSKLTVDKSRWQQGNVFSCSVMHEALHNHYTQKSLSLSPDYKDDDDK
chain: EPKSSDKTHTCPPCPAPELLGGPSVFLFPPKPKDTLMISRTPEVTCVVVDVSHEDPEVKFNWYVDGVEVHNAKTKPREEQYNSTYRVVSVLTVLHQDWLNGKEYKCKVSNKALPAPIEKTISKAKGQPREPQVCTLPPSRDELTKNQVSLWCLVKGFYPSDIAVEWESNGQPENNYKTTPPVLDSDGSFFLYSKLTVDKSRWQQGNVFSCSVMHEALHNRYTQKSLSLSP
light: DIVMTQSPLSLPVTPGEPASISCDSSQSLVHSNRNTYLHWYQQKPGQAPRLLIYKVSNRFSGVPDRFSGSGSGTDFTLKISRVEAEDVGVYYCGQGTQVPYTFGQGTKLEIKRTVAAPSVFIFPPSDEQLKSGTASVVCLLNNFYPREAKVQWKVDNALQSGNSQESVTEQDSKDSTYSLSSTLTLSKADYEKHKVYACEVTHQGLSSPVTKSFNRGEC
B4: GLS3000 R24E one-arm antibody (antibody, human IgG1, kappa, L234A L235A, N297A, name in Kabat numbering)
heavy: QVQLVESGGGVVQPGRSLRLSCAASGFTFSNAWMHWVRQAPGKGLEWVAQIKAKSNNYATYYAESVKGRFTISRDDSKNSLYLQMNSLKTEDTAVYYCRYVHYGAYYGVDAWGQGTTVTVSSASTKGPSVFPLAPSSKSTSGGTAALGCLVKDYFPEPVTVSWNSGALTSGVHTFPAVLQSSGLYSLSSVVTVPSSSLGTQTYICNVNHKPSNTKVDKKVEPKSCDKTHTCPPCPAPEAAGGPSVFLFPPKPKDTLMISRTPEVTCVVVDVSHEDPEVKFNWYVDGVEVHNAKTKPREEQYASTYRVVSVLTVLHQDWLNGKEYKCKVSNKALPAPIEKTISKAKGQPREPQVYTLPPSRCELTKNQVSLSCAVKGFYPSDIAVEWESNGQPENNYKTTPPVLDSDGSFFLVSKLTVDKSRWQQGNVFSCSVMHEALHNHYTQKSLSLSPDYKDDDDK
chain: EPKSSDKTHTCPPCPAPELLGGPSVFLFPPKPKDTLMISRTPEVTCVVVDVSHEDPEVKFNWYVDGVEVHNAKTKPREEQYNSTYRVVSVLTVLHQDWLNGKEYKCKVSNKALPAPIEKTISKAKGQPREPQVCTLPPSRDELTKNQVSLWCLVKGFYPSDIAVEWESNGQPENNYKTTPPVLDSDGSFFLYSKLTVDKSRWQQGNVFSCSVMHEALHNRYTQKSLSLSP
light: DIVMTQSPLSLPVTPGEPASISCESSQSLVHSNRNTYLHWYQQKPGQAPRLLIYKVSNRFSGVPDRFSGSGSGTDFTLKISRVEAEDVGVYYCGQGTQVPYTFGQGTKLEIKRTVAAPSVFIFPPSDEQLKSGTASVVCLLNNFYPREAKVQWKVDNALQSGNSQESVTEQDSKDSTYSLSSTLTLSKADYEKHKVYACEVTHQGLSSPVTKSFNRGEC

Molecular target: T1, CD3ε homodimer protein (human, UniProt P07766 23-126, limits assumed)
T1 construct: also called CD3 (CD3ε)
Assay: SPR Biacore T200, CD3ε homodimer on chip;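 further: Light-chain single-residue variant antibodies injected over amine-coupled CD3ε homodimer on a CM4 chip at 25 °C, bound amount divided by that of the GLS3000-containing antibody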

T1 sequence (P07766 23-126 limits assumed): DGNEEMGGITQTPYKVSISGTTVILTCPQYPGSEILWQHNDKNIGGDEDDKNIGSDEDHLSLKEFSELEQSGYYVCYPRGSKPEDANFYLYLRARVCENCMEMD

Binder | ratio of amount bound vs unaltered GLS3000
B1 | 0.87
B2 | 0.86
B3 | 0.75
B4 | 0.83

From patent US20260049138A1 (Chugai, published 2026)
